This is an account of results in patent US20240343803A1 (SHANDONG SIMCERE BIOPHARMACEUTICAL, published 2024).

Numbering of substitutions follows the chain as printed.

First the molecules themselves.
B1: PVRIG-A50-H1 (Fc fusion)
chain: EVQLVESGGGLVQPGGSLRLSCAASGFTFSYYDMSWVRQAPGKGLEWVSTINSNGGRTSYVDSVKGRFTISRDNSKNTLYLQMNSLRAEDTAVYYCVEGDPHNFGLENLSLRDFGSWGQGTMVTVSS
notes: humanized variant of PVRIG-A50; also called A50.VH1; not shown: constant part not restated for the humanized forms; parents are VHH-hinge-CH2-CH3 of human IgG1; detected by anti-human
B2: PVRIG-A50-H1d (Fc fusion)
chain: B1 chain with N108S
notes: humanized variant of PVRIG-A50; also called A50.VH1d; not shown: constant part not restated for the humanized forms; parents are VHH-hinge-CH2-CH3 of human IgG1; detected by anti-human
B3: PVRIG-A118-H4 (Fc fusion)
chain: EVQLVESGGGLVQPGGSLRLSCAASETYFDLYVMGWYRQAPGKDRELVATITYTGSIKYVDSVKGRFTISRGDAKNSLSLQMNSLRAEDTAVYYCNADPSGLGRKVYWGQGTMVTVSS
notes: humanized variant of PVRIG-A118; also called A118.VH4; not shown: constant part not restated for the humanized forms; parents are VHH-hinge-CH2-CH3 of human IgG1; detected by anti-human
B4: PVRIG-A118-H3 (Fc fusion)
chain: B3 chain with S79Y
notes: humanized variant of PVRIG-A118; also called A118.VH3; not shown: constant part not restated for the humanized forms; parents are VHH-hinge-CH2-CH3 of human IgG1; detected by anti-human
B5: PVRIG-A118-H7 (Fc fusion)
chain: B3 chain with S79Y, Y94F
notes: humanized variant of PVRIG-A118; also called A118.VH7; not shown: constant part not restated for the humanized forms; parents are VHH-hinge-CH2-CH3 of human IgG1; detected by anti-human
B6: PVRIG-A118-H2 (Fc fusion)
chain: B3 chain with G72D, D73N, S79Y
notes: humanized variant of PVRIG-A118; also called A118.VH2; not shown: constant part not restated for the humanized forms; parents are VHH-hinge-CH2-CH3 of human IgG1; detected by anti-human
B7: PVRIG-A118-H6 (Fc fusion)
chain: B3 chain with Y59I, S79Y
notes: humanized variant of PVRIG-A118; also called A118.VH6; not shown: constant part not restated for the humanized forms; parents are VHH-hinge-CH2-CH3 of human IgG1; detected by anti-human
B8: PVRIG-A118-H5 (Fc fusion)
chain: B3 chain with L78V, S79Y
notes: humanized variant of PVRIG-A118; also called A118.VH5; not shown: constant part not restated for the humanized forms; parents are VHH-hinge-CH2-CH3 of human IgG1; detected by anti-human
B9: PVRIG-A118-H1 (Fc fusion)
chain: B3 chain with K58Y, G72D, D73N, S79Y
notes: humanized variant of PVRIG-A118; also called A118.VH1; not shown: constant part not restated for the humanized forms; parents are VHH-hinge-CH2-CH3 of human IgG1; detected by anti-human

The first test deals with T1, human PVRIG-his (AcroBiosystems, Cat NO. PVG-H52H4) (human, UniProt Q6DKI7 41-171, limits assumed).
T1 construct: also called human PVRIG protein
T1 sequence (looked up): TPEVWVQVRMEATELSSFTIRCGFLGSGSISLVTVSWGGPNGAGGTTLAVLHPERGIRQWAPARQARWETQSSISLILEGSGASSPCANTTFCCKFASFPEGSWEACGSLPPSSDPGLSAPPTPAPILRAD
Briefly: ELISA, antigen coated.
As usually defined, the EC50 is the concentration that produces a half-maximal response. Consider B1, for which the “% relative activity parental antibody/tested antibody” value was 105% and the EC50 is 0.0871 nM.

Regarding B2, the “% relative activity parental antibody/tested antibody” value was 118% and the response was half-maximal at 0.0774 nM (EC50).

Take B3: the “% relative activity parental antibody/tested antibody” value stood at 95.8% and a half-maximal response (EC50) required 0.0522 nM.

B4: the “% relative activity parental antibody/tested antibody” value turned out to be 100% and the EC50 was 0.05 nM.

Turning to B5, the “% relative activity parental antibody/tested antibody” value amounted to 99.9% and a half-maximal response (EC50) required 0.0501 nM.

Regarding B6, the “% relative activity parental antibody/tested antibody” value was 102% and a half-maximal effect (EC50) was put at 0.0491 nM.

On to B7, for which the “% relative activity parental antibody/tested antibody” value was 90.8% and a half-maximal effect (EC50) was put at 0.0551 nM.

B8: the “% relative activity parental antibody/tested antibody” value came out at 104% and the EC50 is 0.0481 nM.

Regarding B9, the “% relative activity parental antibody/tested antibody” value came out at 110% and a half-maximal effect (EC50) was put at 0.0456 nM.

A further test concerns the target T2, cynomolgus monkey PVRIG (Novoprotein, Cat NO. C09B) (cynomolgus monkey, UniProt A0A2K5WVV8 41-171).
T2 construct: also called cynomolgus monkey PVRIG protein
T2 sequence: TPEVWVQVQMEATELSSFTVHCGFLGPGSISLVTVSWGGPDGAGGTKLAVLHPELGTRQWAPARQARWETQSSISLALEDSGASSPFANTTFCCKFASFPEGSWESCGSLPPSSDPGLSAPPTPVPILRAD
Briefly: ELISA, antigen coated. On the technique in general: ELISA stands for enzyme-linked immunosorbent assay.
For B1, the “% relative activity parental antibody/tested antibody” value is 95.1% and the EC50 is 0.13 nM.

B2: the “% relative activity parental antibody/tested antibody” value came to 111% and the EC50 is 0.111 nM.

As to B3, the “% relative activity parental antibody/tested antibody” value stood at 37.1% and a half-maximal effect (EC50) was put at 0.0729 nM.

Regarding B4, the “% relative activity parental antibody/tested antibody” value was found to be 34% and the EC50 was determined as 0.0794 nM.

Regarding B5, the “% relative activity parental antibody/tested antibody” value turned out to be 33.1% and the response was half-maximal at 0.0817 nM (EC50).

As to B6, the “% relative activity parental antibody/tested antibody” value was 4.55% and it took 0.594 nM to reach a half-maximal effect (EC50).

On to B7, for which the “% relative activity parental antibody/tested antibody” value was 48.4% and the EC50 worked out at 0.0559 nM.

Take B8: the “% relative activity parental antibody/tested antibody” value amounted to 40.2% and the EC50 amounted to 0.0673 nM.

Regarding B9, the “% relative activity parental antibody/tested antibody” value turned out to be 4.62% and the EC50 was determined as 0.585 nM.

The target of the next test is T3, cynomolgus monkey PVRIG on FlpinCHO-cyno PVRIG cells (cynomolgus monkey, UniProt A0A2K5WVV8 41-322).
T3 construct: whole, on cells
T3 sequence: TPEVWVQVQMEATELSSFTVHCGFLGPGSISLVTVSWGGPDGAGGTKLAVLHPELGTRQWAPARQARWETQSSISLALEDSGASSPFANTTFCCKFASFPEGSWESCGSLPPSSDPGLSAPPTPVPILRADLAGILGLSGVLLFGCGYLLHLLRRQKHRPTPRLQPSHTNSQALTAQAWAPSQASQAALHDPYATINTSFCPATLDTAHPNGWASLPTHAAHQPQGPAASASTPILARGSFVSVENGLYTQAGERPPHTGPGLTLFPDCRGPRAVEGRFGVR
Briefly: FACS, FlpinCHO-cyno PVRIG cells. The procedure: The antibodies were diluted from the highest concentration of 46 nM (two-fold concentration) with staining buffer by 3.3-fold serial dilution. The diluted antibodies were added to the well containing 50 μL of cell suspension. The plate was placed on a microplate shaker at 400 rpm for 1 minute to fully mix the antibodies and cells, and then incubated at 4° C. for 30 minutes. After the incubation, the cells were washed twice with staining buffer (200 μL per well) and centrifuged at 350×g for 5 minutes to discard the supernatant. The PE goat anti-human IgG Fc antibody (ebioscience, 12-4998-82) was diluted 250 times with staining buffer, added into the washed wells (100 μL per well), mixed well, and stained at 4° C. for 30 minutes. After staining, the cells were washed twice with staining buffer, finally resuspended with 200 μL staining buffer and analyzed by flow cytometry (BD, Canto II). The stronger the signal, the stronger the ability of the antibodies binds to PVRIG. An antibody binding curve was drawn with concentration of antibodies as the abscissa and the corresponding Mean Fluorescence Intensity (MFI) as the ordinate. The AUC value of the curve was calculated by using a Four Parameter Logistic Fit (GraphPadPrism9). The stronger the AUC value, the stronger the ability of the antibodies binds to FlpinCHO-PVRIG and FlpinCHO-cyno PVRIG. […] The binding activity of the antibodies was normalized to the positive control COM701-hIgG1 and SRF813-hIgG1. The higher the percentage value, the stronger the binding ability of the antibodies.
The methods refer to Example 19. The stronger the AUC value, the stronger the ability of the humanized antibodies binds to FlpinCHO-human/cyno PVRIG.
As to B1, the “AUC % to COM701-hIgG1” value amounted to 45.2%, the “AUC % to SRF813-hIgG1” value amounted to 55.5% and the “AUC % to parental Ab” value amounted to 96%.

With B2, the “AUC % to COM701-hIgG1” value turned out to be 48.6%, the “AUC % to SRF813-hIgG1” value was 59.7% and the “AUC % to parental Ab” value was 103%.

Turning to B3, the “AUC % to COM701-hIgG1” value turned out to be 21.3%, the “AUC % to SRF813-hIgG1” value is 26% and the “AUC % to parental Ab” value amounted to 34.2%.

For the molecule B4, the “AUC % to COM701-hIgG1” value is 21%, the “AUC % to SRF813-hIgG1” value turned out to be 25.6% and the “AUC % to parental Ab” value is 33.6%.

B5: the “AUC % to COM701-hIgG1” value is 19.7%, the “AUC % to SRF813-hIgG1” value stood at 24% and the “AUC % to parental Ab” value is 31.6%.

Regarding B6, the “AUC % to COM701-hIgG1” value stood at 14.6%, the “AUC % to SRF813-hIgG1” value is 17.8% and the “AUC % to parental Ab” value turned out to be 23.4%.

For the molecule B7, the “AUC % to COM701-hIgG1” value was 19.9%, the “AUC % to SRF813-hIgG1” value is 24.2% and the “AUC % to parental Ab” value came to 31.8%.

Regarding B8, the “AUC % to COM701-hIgG1” value worked out at 21.8%, the “AUC % to SRF813-hIgG1” value is 26.6% and the “AUC % to parental Ab” value stood at 35%.

Regarding B9, the “AUC % to COM701-hIgG1” value was determined as 11.5%, the “AUC % to SRF813-hIgG1” value amounted to 14.1% and the “AUC % to parental Ab” value was 18.5%.

The target of a further test is T1, human PVRIG-his (AcroBiosystems, Cat …). Nature of the test: SPR (BIAcore), antibody captured on Protein A chip, human PVRIG-His analyte.
Usually Kd stands for the free concentration of one partner at which half of the binding sites on the other are occupied at equilibrium, for simple one-to-one binding. The koff is the first-order rate constant of dissociation. By kon is commonly meant the rate constant with which the complex forms. For B1, the affinity, expressed as Kd, was 0.0362 nM; the koff came to 1.48e-05 s⁻¹; the kon is 410000 M⁻¹ s⁻¹.

On to B2, for which the Kd came out at 0.0545 nM, the koff is 1.43e-05 s⁻¹ and the kon worked out at 262000 M⁻¹ s⁻¹.

In turn, B3 displayed a Kd of 1.21 nM, a koff of 0.00327 s⁻¹ and a kon of 2.69e+06 M⁻¹ s⁻¹.

As to B4, binding was characterised by a dissociation constant (Kd) of 1.35 nM, the koff worked out at 0.00349 s⁻¹ and the kon was 2.59e+06 M⁻¹ s⁻¹.

Consider B5, for which the Kd is 1.08 nM, the koff was determined as 0.0026 s⁻¹ and the kon worked out at 2.41e+06 M⁻¹ s⁻¹.

Turning to B6, binding was put at a Kd of 0.517 nM, the koff was determined as 0.00082 s⁻¹ and the kon amounted to 1.59e+06 M⁻¹ s⁻¹.

B7 registered a Kd of 1.1 nM, a koff of 0.00299 s⁻¹ and a kon of 2.71e+06 M⁻¹ s⁻¹.

For B8, the Kd came to 1.37 nM, the koff is 0.00383 s⁻¹ and the kon was 2.79e+06 M⁻¹ s⁻¹.

Take B9: binding was characterised by a dissociation constant (Kd) of 0.478 nM, the koff was 0.000658 s⁻¹ and the kon was 1.38e+06 M⁻¹ s⁻¹.
